B1: HDV Ribozyme (parent)
chain: GGCCGGCAUGGUCCCAGCCUCCUCGCUGGCGCCGGCUGGGCAACAUUCCGAGGGGACCGUCCCCUCGGUAAUGGCGAAUGGGACCCA

The variants in this data set derive from B1. The data set is described as follows: self-cleavage, relative activity (ratio to wild type); higher = more cleavage; co-transcriptional.
In the case of U46A U47G, the self-cleavage amounted to 0.369. With U46G A56C the figure was 0.959; with U47C A78G, 0.807. Next, U47C A78C: 0.0898; U46G A77G: 0.415. As to U46G A77U, the self-cleavage worked out at 0.0831.

With U47C G52C, the self-cleavage came out at 0.917. Next, U47C G52A: 0.853; C48A C75A: 0.326; C48A C75G: 0.142. Next, U47G A83U: 0.525. For U47G A83G, the self-cleavage was determined as 0.8. With U47C A87G the figure was 0.876; with U47C A87U, 0.746; with U47C A87C, 0.95. In the case of U47C U69G, the self-cleavage stood at 1.02. Next, U47C U69A: 0.762; U47G A56C: 1.09. With U47G A56G the figure was 1.08. With U47G A56U the figure was 1.11; with U47C A77U, 0.285; with U46G G73U, 0.514. As for U47A U69C, the self-cleavage was found to be 0.764. Take U47G U79A: the self-cleavage is 0.95. Turning to U47G U79G, the self-cleavage amounted to 0.415. With U47C C58G the figure was 0.807.

For the variant U47C C58U, the self-cleavage came to 0.752. U47C C58A: the self-cleavage was 0.779. With U46C G73C, the self-cleavage is 0.525. In the case of U47C G80C, the self-cleavage was 0.138. Next, U47C G80A: 0.215.

As to U47C U65G, the self-cleavage turned out to be 0.856.

On to U47C U65C, for which the self-cleavage worked out at 0.733. With U46G G82C the figure was 0.158. With U46G G82U the figure was 0.229; with U47G G68C, 0.499; with U47G G68A, 0.831. Take U47G G68U: the self-cleavage worked out at 1.01. As to U47A G54U, the self-cleavage worked out at 0.91. U47C C75G: the self-cleavage was found to be 0.

For the variant U47C C75U, the self-cleavage is 0.0791. Regarding U46A U72G, the self-cleavage stood at 0.65. As for U46A U72C, the self-cleavage came to 0.655. Consider U46A U72A, for which the self-cleavage was found to be 0.615. On to U47A C84A, for which the self-cleavage amounted to 0.808. With U46G U79A, the self-cleavage is 0.356.

As to U46G G59U, the self-cleavage is 0.902. As to U46C U79G, the self-cleavage amounted to 0.554. U46C U79C: the self-cleavage came out at 0.432.

As for U46A G76A, the self-cleavage came out at 0.831. With U47C C66U the figure was 0.725.

In the case of U47A G52U, the self-cleavage amounted to 0.845.

With U47A G52A, the self-cleavage was 0.975. With U46C A70U the figure was 0.957.

Take U46C A70C: the self-cleavage worked out at 0.795.

For U46C A56U, the self-cleavage came out at 1.09.

In the case of U47G G74A, the self-cleavage is 0.435. Take U47G G74C: the self-cleavage stood at 0.222. Next, U47G G76C: 0.727; U47G G76A: 1.25. With U47A G73A the figure was 0.447; with U47A G73U, 0.142; with U47A G73C, 0.665. Regarding U46C A83U, the self-cleavage was determined as 0.554.

With U46C U72A, the self-cleavage worked out at 0.504. Regarding U46C U72G, the self-cleavage stood at 0.475. With U46C U72C the figure was 0.684; with U46G A51G, 0.739; with U46G A51C, 0.755.

With C48A C49G, the self-cleavage was found to be 1.01. For U47C U60G, the self-cleavage was 0.935. In the case of U47A C62A, the self-cleavage was found to be 1.01. With U47A C49G the figure was 1.42; with U46A G82A, 0.156.

On to U46C, for which the self-cleavage worked out at 0.815. With U46G the figure was 0.793; with U46G G80C, 0.185; with U46G G80U, 0.202. With U46G G74A the figure was 0.365; with U46C C86A, 0.849; with U47G A77U, 0.665. Take U46G C86A: the self-cleavage came out at 0.684.

Regarding U46G C86U, the self-cleavage is 0.277. In the case of U47A C85U, the self-cleavage was 1.03. Next, U46C C84A: 0.723; U46C C84G: 0.237. Next, U46G U47C: 0.623; U46G U47A: 0.8. Take U46G G76C: the self-cleavage came out at 0.95. With U46G G76A the figure was 0.911.

C48A A70C: the self-cleavage turned out to be 0.957. As to C48A A70G, the self-cleavage was found to be 1.11. Next, U46A U79G: 0.322. Consider U46A U79A, for which the self-cleavage worked out at 0.504. Next, U46C A77G: 0.516; U46C A77C: 0.375. For U46C A77U, the self-cleavage worked out at 0.104. With C48A A71G the figure was 0.791; with U47G C49A, 1.09; with U46C G53A, 0.796. Take U46C G53C: the self-cleavage amounted to 0.739. Next, U46G A87G: 0.724; U46C C49G: 0.554. Next, U46C C49U: 0.73.

On to U46G G54U, for which the self-cleavage stood at 0.443. With U46G G54A the figure was 0.656; with U46G G54C, 0.453; with U46G G50U, 0.458. For U46G G50A, the self-cleavage is 0.525. In the case of U46C G81C, the self-cleavage stood at 0.302. With U47A G80C the figure was 0.138; with U47A G80U, 0.172. Regarding U47C C62A, the self-cleavage worked out at 1.06.

As for U47C C62G, the self-cleavage is 0.415. Turning to U47C C62U, the self-cleavage is 1.16.

Regarding U46G C61U, the self-cleavage stood at 0.332.

In the case of U46G C61G, the self-cleavage was 0.649.

For U47C G55C, the self-cleavage was determined as 0.862. For the variant U47C G55A, the self-cleavage stood at 0.923. With U47G G81A the figure was 0.237; with U47G G81U, 0.214; with U46C C61G, 0.734. U46C C61U: the self-cleavage is 0.796. Consider U47G G55A, for which the self-cleavage is 0.939. With U47G G55C the figure was 1.07; with U47C G73C, 0.374. Next, U47C G73A: 0.464; U47C G73U: 0.225.

Regarding U47G G50C, the self-cleavage is 0.831.

With U47G G50A, the self-cleavage was found to be 0.957. Regarding U46C G55A, the self-cleavage came out at 0.878.

As to U46C G55C, the self-cleavage was determined as 0.554.

Regarding U47A U60G, the self-cleavage stood at 1.02. For U47C C49G, the self-cleavage is 0.978. With U47C C49U the figure was 0.864; with U47G C58A, 1.48; with U46C G82A, 0.224. Consider U46C G82C, for which the self-cleavage worked out at 0.243.

On to U47A G59A, for which the self-cleavage was 0.746. On to U47G C64A, for which the self-cleavage is 0.875. In the case of U47C C63G, the self-cleavage was determined as 0.178. Next, C48A A83G: 0.791; C48A A83C: 0.317. With C48A A87G, the self-cleavage amounted to 0.955.

With U47G U60G, the self-cleavage is 1.21. For U47G U60C, the self-cleavage worked out at 0.767. Take U46G C64A: the self-cleavage was 0.0831. As to U46G C64G, the self-cleavage worked out at 0.525.

For U46G C64U, the self-cleavage came to 0.776. U46G C58G: the self-cleavage was 0.89. With U46C U65G the figure was 1.09; with U47G, 1.09. With U47A the figure was 0.958; with U47C, 0.906; with U46G C48A, 0.903.

Regarding U47G G67C, the self-cleavage stood at 0.554. Turning to U47G G67U, the self-cleavage was determined as 0.929. With U47G G67A the figure was 0.831.

As for U46C G54U, the self-cleavage was determined as 0.786. Next, U46C G54C: 1.04; U47A C66G: 0.982; U47A C66A: 0.847. Consider U47C A71C, for which the self-cleavage was found to be 0.883. For the variant U47A G76C, the self-cleavage stood at 0.812. Next, U46G G53C: 0.465. For the variant U46C G80C, the self-cleavage came to 0.399. With U46C G80U the figure was 0.0903.

These data come from the RNAGym collection of RNA variant scans (doi:10.7554/elife.80360).
